{"source": "the DeepSol protein solubility set"}
{"experiment": "soluble on expression in E. coli; label from the status in PepcDB or PDB records"}
{"sequence": "MTYWICITNRENWEVIKRHNVWGVPKKHKNTLSRVKPGDKLVIYVRQEKDKEGNLLEPKIVGIYEVTSEPYVDFSRIFKPHRGGKETYPYRVKIKPIKIGEINFKPLINDLKFIKNKKRWSMHFFGKAMRELPEEDYKLIEKLLL", "soluble on expression in E. coli": "soluble"}
{"sequence": "MVAFTVDQMRSLMDKVTNVRNMSVIAHVDHGKSTLTDSLVQRAGIISAAKAGEARFTDTRKDEQERGITIKSTAISLYSEMSDEDVKEIKQKTDGNSFLINLIDSPGHVDFSSEVTAALRVTDGALVVVDTIEGVCVQTETVLRQALGERIKPVVVINKVDRALLELQVSKEDLYQTFARTVESVNVIVSTYADEVLGDVQVYPARGTVAFGSGLHGWAFTIRQFATRYAKKFGVDKAKMMDRLWGDSFFNPKTKKWTNKDTDAEGKPLERAFNMFILDPIFRLFTAIMNFKKDEIPVLLEKLEIVLKGDEKDLEGKALLKVVMRKFLPAADALLEMIVLHLPSPVTAQAYRAEQLYEGPADDANCIAIKNCDPKADLMLYVSKMVPTSDKGRFYAFGRVFAGTVKSGQKVRIQGPNYVPGKKDDLFIKAIQRVVLMMGRFVEPIDDCPAGNIIGLVGIDQFLLKTGTLTTSETAHNMKVMKFSVSPVVQVAVEVKNANDLPKLVEGLKRLSKSDPCVLTYMSESGEHIVAGTGELHLEICLQDLEHDHAGVPLKISPPVVAYRETVESESSQTALSKSPNKHNRIYLKAEPIDEEVSLAIENGIINPRDDFKARARIMADDYGWDVTDARKIWCFGPDGNGPNLVIDQTKAVQYLHEIKDSVVAAFQWATKEGPIFGEEMRSVRVNILDVTLHADAIHRGGGQIIPTMRRATYAGFLLADPKIQEPVFLVEIQCPEQAVGGIYSVLNKKRGQVVSEEQRPGTPLFTVKAYLPVNESFGFTGELRQATGGQAFPQMVFDHWSTLGSDPLDPTSKAGEIVLAARKRHGMKEEVPGWQEYYDKL", "soluble on expression in E. coli": "soluble"}
{"sequence": "MVAVYDVEFPLPLNTQPMEARAAGVLPRDDGPWQYEPKWDGFRCLAFKAGKAVDLRAKSGKPLGRYFPELMAALSALAATEFVIDGEIIIEIEGRASFDALQMRLHPAESRIRKLSRETPARLVVFDMLVAPEGRPRMELPLRDRRAEAEDLVAKAKTKTLRLSPATTSLATADNWLKGAGSGSIDGVVAKLLNGPYRPGERAMVKVKRLRTADCVVGGFRYLNGKRQVGSLLLGLYNGDGLLDHVGFTSTIANDERAVLTEKLENLRGGSGFTGKAPGGPSRWSTERSGEWEPVRPELVVEVRFDHVTGDRFRHGTKLVRWRPDKAPLQCTFEQLELEHHHHHH", "soluble on expression in E. coli": "soluble"}
{"sequence": "MVDIPPPFDLACITKKPITKSSPSLLIESDSPDKYKKKKSSFKRFLALTFKKKTENKLHVDVNVSSSRSSSESSYHGPSRILEVDRRSLSNSPQLKSRTGKLRASESPSSLIFYRDGKRKGVPFSRTVSRVESFEDRSRPPFLPLPLTKPRSISFPSADTSDYENIPAMNSDYENIQIPPRRPARAGAFTKLFEDQSRALSTANENDGYVDMSSFNAFESKQQSADQDAESAYTEPYKVCPISSAAPKEDLTSDEEQRSSEEEDSASRDPSVTHKVEGQSRALVIAQELLSSEKAYVEMLQHLNLDFHGAVMRALDDMDHEGRDTLAREELRQGLSELPAIHDLHQGILEELEERLSNWESQQKVADVFLAREQGFDHHATHILQFDRYLGLLSENCLHSPRLAAAVREFEQSVQGGSQTAKHRLLRVVQRLFQYQVLLTDYLNNLCPDSAEYDNTQGALSLISKVTDRANDSMEQGENLQKLVHIEHSVRGQGDLLQPGREFLKEGTLMKVTGKNRRPRHLFLMNDVLLYTYPQKDGKYRLKNTLAVANMKVSRPVMEKVPYALKIETSESCLMLSASSCAERDEWYGCLSRALPEDYKAQALAAFHHSVEIRERLGVSLGERPPTLVPVTHVMMCMNCGCDFSLTLRRHHCHACGKIVCRNCSRNKYPLKYLKDRMAKVCDGCFGELKKRGRAVPGLMRERPVSMSFPLSSPRFSGSAFSSVFQSINPSTFKKQKKVPSALTEVAASGEGSAISGYLSRCKRGKRHWKELWFVIKGKVLYTYMASEDKVALESMPLLGFTIAPEKEEGSSEVGPIFHLYHKKTLFYSFKAEDTNSAQRWIEAMEDASVL", "soluble on expression in E. coli": "soluble"}
{"sequence": "MVDKLKQQNCTISTCESLTAGLMAATIANLPGSSQVLRGGLITYATDSKVSVAGVPGATVEEHGPVSWQCAEAMAIGAKRQFQSQWAVSLTGVAGPATQCGQPVGTVWIGVALPNGTVKSKLVADILCGPGQVVAGDRQTIRLAAVRAAAMWITDLLGLEYTNEN", "soluble on expression in E. coli": "not soluble"}
{"sequence": "MVDKREEVMHVAMFPWLAMGHLLPFLRLSKLLAQKGHKISFISTPRNIERLPKLQSNLASSITFVSFPLPPISGLPPSSESSMDVPYNKQQSLKAAFDLLQPPLKEFLRRSSPDWIIYDYASHWLPSIAAELGISKAFFSLFNAATLCFMGPSSSLIEEIRSTPEDFTVVPPWVPFKSNIVFRYHEVTRYVEKTEEDVTGVSDSVRFGYSIDESDAVFVRSCPEFEPEWFGLLKDLYRKPVFPIGFLPPVIEDDDAVDTTWVRIKKWLDKQRLNSVVYVSLGTEASLRHEEVTELALGLEKSETPFFWVLRNEPKIPDGFKTRVKGRGMVHVGWVPQVKILSHESVGGFLTHCGWNSVVEGLGFGKVPIFFPVLNEQGLNTRLLHGKGLGVEVSRDERDGSFDSDSVADSIRLVMIDDAGEEIRAKAKVMKDLFGNMDENIRYVDELVRFMRSKGSSSSS", "soluble on expression in E. coli": "not soluble"}
{"sequence": "MVDPPGNDDDHGDLDALDFSAAHTNEASPLDALDDYAPVQTDDAEGDLDALHALTERDEEPELELFTVTNPQGSVSVSTLMDGRIQHVELTDKATSMSEAQLADEIFVIADLARQKARASQYTFMVENIGELTDEDAEGSALLREFVGMTLNLPTPEEAAAAEAEVFATRYDVDYTSRYKADD", "soluble on expression in E. coli": "soluble"}
{"sequence": "MVDRVIEMAIQQQPMTEPVGIPVIILKEGTQRSYGREALRANIMAVRAIAQILKTTYGPKGMDKMLVDSLGDITITNNGATILDKMDVAHPAAKMLVQISKGQEDEAGDGTKTTVIFAGELLKEAEKLLDINIHPTIIVEGYKEALRKASEVIESIAEPVSYDDVEKLKLIAKTSLNSKAVAEARDYFAELAVEAVRTVAERRGDRWYVDLNNIQIVKKHGGSLRDTRLVRGIVLDKEVVHPDMPRRVENARIALLDTPLEIEKPEIDLEISITSPEQIKALYEKQERILQEKIEKIAATGANVVITQKGIDDVAQHFLAKKGILAVRRVKRSDIEKIARATGARIVTDIEDLRPEDLGYAELVEERKVGEDKMVFIEGAKNPKSVTILLRGGFERLVDEAERSLHDALSVVADAIMDGKIVAGGGAVEAEVAKVLYEYASKLPGKTQLAVEAFARAVEALPQALAHNAGHDPIEVLVKLRSAHEKPENKWYGVDLDTGEIVDMWSRGVLEPMRVKLNALKAATEVASLILRIDDVIAARKEEEEKEEKRGGEEE", "soluble on expression in E. coli": "soluble"}
{"sequence": "MVEIVGHRAFKARYPENTLLAFEKAYAAGADVIETDLQMTSDGMVVVNHDSDTGRMWDKNLVIGESTWEEVKRLRCKEDGSLAMMTLKEILTWAVCHPGAKLMLDIKFTNEKIIMIKTFVIMLEVKNDLKFWQERITWGLWLLDWYDFGIETGVLKDFKVIVISLSLDIASQFVKRSLTLNDPHYKLFGISVHFVSSWTSQFRLRLLPVLMKNDIKVYLWTVNKPIDFKYLCELPIHGAITDDPIKARKLCDGHTVAKKPTAEKKFVAPSLASVDGLRFHAFIKVYNILCTLLYSKWVHIKLCGWSIAYVIFLFLRTIHFL", "soluble on expression in E. coli": "soluble"}
{"sequence": "MVEMDGRKFLKLLKEEVHKAVVGKDDVIELLAIALLAEGHVMIEGVPGVAKTTIAKSFAQVLGLKFSRIQLTPDLLPADILGTVYYDQSDGLWKIKKGPIFANVVLADEINRAQPKTQSALLEAMQERQVTIEGRTFPLEKPFMVIATKNPIEFEGVYNLPEAQVDRFMLNIKIGYPTREEEVEMLRKKDRGELGEVGRIFSREQIVRMINEVKRVKTSEEVLHYLYEIVNETRKDERLIVGASPRASEHLLYASKAKAFLEGRDYVIPDDVKFLAVPVLAHRLLIKAEHEIEGIKGEDIVREILERVEVPI", "soluble on expression in E. coli": "soluble"}
{"sequence": "MVESQFEQDSQISTDSPLVLVKAAEKTSAIQQLLDYISNYQMISSNSIPIKSMDKIMMLKLDDIILVDVNQTTLKIYTLTGVFTTTETLVHFANRLNKSNFIQISKHALINLDHLESLSDSFSGNMMAKLSSNIKSSVSRKYVKGLMTQLGI", "soluble on expression in E. coli": "not soluble"}
